Earlier results as cited in article PMC3034196.

Molecular target: alkaline protease (Pseudomonas aeruginosa) (UniProt Q03023)
Chain of UniProt Q03023 (Q03023 10-479): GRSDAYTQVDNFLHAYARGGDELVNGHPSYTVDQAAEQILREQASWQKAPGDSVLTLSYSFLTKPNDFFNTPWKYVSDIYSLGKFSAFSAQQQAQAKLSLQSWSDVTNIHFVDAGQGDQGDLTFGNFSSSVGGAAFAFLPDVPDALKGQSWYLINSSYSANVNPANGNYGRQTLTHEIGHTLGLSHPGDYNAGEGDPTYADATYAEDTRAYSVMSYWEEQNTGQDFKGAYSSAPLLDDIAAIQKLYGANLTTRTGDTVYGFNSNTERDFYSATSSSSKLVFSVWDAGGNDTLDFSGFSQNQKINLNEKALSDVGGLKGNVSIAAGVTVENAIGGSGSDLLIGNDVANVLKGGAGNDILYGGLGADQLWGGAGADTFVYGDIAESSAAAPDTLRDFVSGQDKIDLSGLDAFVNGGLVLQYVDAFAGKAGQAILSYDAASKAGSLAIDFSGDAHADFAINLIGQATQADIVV

For “APRin (alkaline protease inhibitor) (from UniProt Q03026)”, the Kd is listed as 4 pM.
